Test results from publication PMC4372114.
Several values for one entry are separate records, joined by “and”; a condition that tells them apart may be missing. Equal entries are not always repeated.

Molecular target: Recombinant human vascular endothelial growth factor receptor (VEGFR) (human) (UniProt P35968)
Assay: SPR

Chain of UniProt P35968 (P35968 20-764): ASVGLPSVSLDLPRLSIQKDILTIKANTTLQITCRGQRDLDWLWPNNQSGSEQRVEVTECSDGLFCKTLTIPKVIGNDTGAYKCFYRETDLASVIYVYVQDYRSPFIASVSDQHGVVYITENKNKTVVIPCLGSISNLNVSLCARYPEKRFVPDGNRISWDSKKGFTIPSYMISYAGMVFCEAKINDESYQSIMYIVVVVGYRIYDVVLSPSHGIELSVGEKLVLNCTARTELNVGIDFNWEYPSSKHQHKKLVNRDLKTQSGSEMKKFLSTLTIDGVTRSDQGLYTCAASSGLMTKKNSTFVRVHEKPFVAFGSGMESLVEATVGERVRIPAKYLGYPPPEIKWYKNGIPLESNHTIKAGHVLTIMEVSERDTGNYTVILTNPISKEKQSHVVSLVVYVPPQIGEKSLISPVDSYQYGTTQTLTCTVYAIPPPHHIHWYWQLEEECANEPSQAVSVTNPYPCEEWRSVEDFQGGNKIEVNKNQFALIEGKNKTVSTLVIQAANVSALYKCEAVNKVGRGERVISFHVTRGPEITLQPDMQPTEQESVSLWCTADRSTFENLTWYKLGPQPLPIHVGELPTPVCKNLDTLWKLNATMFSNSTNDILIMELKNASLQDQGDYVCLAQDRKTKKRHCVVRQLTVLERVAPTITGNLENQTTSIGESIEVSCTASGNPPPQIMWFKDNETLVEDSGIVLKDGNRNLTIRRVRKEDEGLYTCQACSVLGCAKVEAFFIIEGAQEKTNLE

SPR baseline shift	kon	Substance
60.2 mDeg and 69.3 mDeg and 57.4 mDeg	83000 M⁻¹ s⁻¹ and 91000 M⁻¹ s⁻¹ and 82000 M⁻¹ s⁻¹	Recombinant human vascular endothelial growth factor (VEGF) (from UniProt P15692 1-395) (ligand)
104 mDeg and 106 mDeg and 113 mDeg	–	VEGF released from living SKOV-3 cells (from UniProt P15692 1-395) (ligand)
